What follows are substances tested against bub1b_human BUB1B (UniProt O60566).
bub1b_human BUB1B, sequence (O60566 whole entry): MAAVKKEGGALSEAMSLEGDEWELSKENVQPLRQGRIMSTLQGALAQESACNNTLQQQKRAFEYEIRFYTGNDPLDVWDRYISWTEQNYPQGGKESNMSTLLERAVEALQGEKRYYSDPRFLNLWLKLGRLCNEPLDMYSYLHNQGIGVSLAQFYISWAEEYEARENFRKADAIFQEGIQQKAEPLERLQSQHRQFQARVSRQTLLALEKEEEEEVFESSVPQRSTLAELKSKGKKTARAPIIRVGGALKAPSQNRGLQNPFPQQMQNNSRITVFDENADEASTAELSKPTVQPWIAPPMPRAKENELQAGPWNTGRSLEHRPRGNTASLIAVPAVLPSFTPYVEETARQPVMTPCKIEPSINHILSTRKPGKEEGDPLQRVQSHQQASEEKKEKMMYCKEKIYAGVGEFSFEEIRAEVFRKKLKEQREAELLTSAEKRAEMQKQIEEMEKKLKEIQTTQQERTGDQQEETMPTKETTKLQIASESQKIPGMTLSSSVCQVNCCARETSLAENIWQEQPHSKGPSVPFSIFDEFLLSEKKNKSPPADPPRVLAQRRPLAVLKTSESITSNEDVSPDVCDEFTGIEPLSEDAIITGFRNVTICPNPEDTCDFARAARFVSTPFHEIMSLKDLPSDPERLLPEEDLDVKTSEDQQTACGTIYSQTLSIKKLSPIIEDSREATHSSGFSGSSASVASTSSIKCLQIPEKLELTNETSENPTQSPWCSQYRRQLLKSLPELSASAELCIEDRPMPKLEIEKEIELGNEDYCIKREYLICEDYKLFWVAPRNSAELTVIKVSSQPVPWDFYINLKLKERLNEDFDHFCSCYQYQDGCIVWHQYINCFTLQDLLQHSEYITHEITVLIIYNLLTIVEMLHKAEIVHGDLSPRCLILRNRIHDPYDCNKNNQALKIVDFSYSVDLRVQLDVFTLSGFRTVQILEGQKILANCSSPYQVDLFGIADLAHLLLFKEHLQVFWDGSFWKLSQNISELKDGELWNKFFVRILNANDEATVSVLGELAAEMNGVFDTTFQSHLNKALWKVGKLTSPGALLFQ

Row | effect of a mutation on the interaction | Substance
1 | disrupting interaction | Outer kinetochore KNL1 complex subunit KNL1 (Homo sapiens), Q8NG31-2 F215A;I219A
2 | disrupting interaction | Outer kinetochore KNL1 complex subunit KNL1 (Homo sapiens), Q8NG31-2 F215A;F218A
3 | disrupting interaction | Outer kinetochore KNL1 complex subunit KNL1 (Homo sapiens), Q8NG31-2 I213A;F215A;F218A

From IntAct's records for PubMed 22000412
